Measured values published in publication doi:10.1101/2023.06.15.543498.

Biological target: E. coli 70S ribosomes without a bound tRNA (E. coli (endogenous in strain MRE600)) (UniProt P0A7L0)
Test: populations of particle classes in cryo-EM samples

Kd | Substance
> 19 µM | EQ2-YheS (hydrolysis-deficient EQ2 mutant of E. coli YheS) (from UniProt P63389 1-637) (enzyme)
> 12 µM | EQ2-Uup (hydrolysis-deficient EQ2 mutant of E. coli Uup) (from UniProt P43672 1-635) (enzyme)
62 µM | EQ2-EttA (hydrolysis-deficient EQ2 mutant of E. coli EttA, Energy-dependent translation throttle A) (from UniProt P0A9W3 1-555) (enzyme)
1.2 µM | EQ2-YbiT (hydrolysis-deficient EQ2 mutant of E. coli YbiT) (from UniProt P0A9U3 1-530) (enzyme)
